In the assay the target is Na/K-ATPase α1-β2 (ATP1A1 with ATP1B2) (human, UniProt P05023-1 1-1023; P14415 1-290). Briefly: binding to transfected cells, Western blot of washed cell pellets. For orientation: Immunoblotting shows a protein as a band on a membrane.

B1: retinoschisin (natural protein)
chain: STEDEGEDPWYQKACKCDCQGGPNALWSAGATSLDCIPECPYHKPLGFESGEVTPDQITCSNPEQYVGWYSSWTANKARLNSQGFGCAWLSKFQDSSQWLQIDLKEIKVISGILTQGRCDIDEWMTKYSVQYRTDERLNWIYYKDQTGNNRVFYGNSDRTSTVQNLLRPPIISRFIRLIPLGWHVRIAIRMELLECVSKCA
As for B1, the “retinoschisin binding relative to α3-β2 (densitometry)” value is 1.5 fold of binding to α3-β2.

(Values after article PMC5531734 (Molecular Biology of the Cell, 2017).)
